The values below come from US20250195679A1 (SHANGHAI HUAOTA BIOPHARMACEUTICAL, published 2025).

The chains are these.
B1: 900698 antibody (antibody, V domains shown)
VH: QVQLVESGGGLVKPGGSLRLSCAASGFTFSKYAMSWIRQAPGKGLEWVAEISSGGGYINYADSVKGRFTISRDNAKNSLYLQMNSLRAEDTAVYYCARAIYYYGSSYNYYAMDYWGQGTTVTVSS
VL: DIQMTQSPSSLSASVGDRVTITCRASQDVGTAEAWYQQKPGKAPKLLIYWASTRHTGVPSRFSGSGSGTDFTLTISSLQPEDFATYYCQQYSSYPLTFGQGTKLEIK
notes: embodiments say they may derive from human IgG1 and human Ig kappa; It was detected with anti-human Fc and captured on protein A; also called 900698 naked antibody; naked antibody 900698
B2: CD73 antibody-MP2-VC-PAB-DMEDA-PEG-SN38 (antibody, V domains shown)
VH: B1 VH
VL: B1 VL
modifications: SN-38 conjugated through MP2-VC-PAB-DMEDA-PEG linker by cysteine conjugation; DAR about 7.8 for the whole antibody; conjugated cysteines not named
notes: the constant regions that carry the conjugated cysteines are not; also called antibody-drug conjugate 2
B3: CD73 antibody-Mc-VC-PAB-DMEDA-PEG-SN38 (antibody, V domains shown)
VH: B1 VH
VL: B1 VL
modifications: SN-38 conjugated through Mc-VC-PAB-DMEDA-PEG linker by cysteine conjugation; DAR about 7.8 for the whole antibody; conjugated cysteines not named
notes: the constant regions that carry the conjugated cysteines are not; also called antibody-drug conjugate 1
B4: BMS-986179 (antibody, human IgG1, kappa, L234A L235A, V domains shown)
VH: QVQLVESGGGVVQPGRSLRLSCAASGFTFSNYGMHWVRQAPGKGLEWVAVILYDGSNKYYPDSVKGRFTISRDNSKNTLYLQMNSLRAEDTAVYYCARGGSSWYPDSFDIWGQGTMVTVSS
VL: DIQMTQSPSSLSASVGDRVTITCRASQGISSWLAWYQQKPEKAPKSLIYAASSLQSGVPSRFSGSGSGTDFTLTISSLQPEDFATYYCQQYNSYPLTFGGGTKVEIKR
notes: also called CD73 positive control antibody BMS-986179
B5: 900725 antibody (antibody, V domains shown)
VH: QVQLVQSGAEVKKPGASVKLSCKASGYTFTSYWIHWVRQAPGQGLEWIGMIHPNSGSTYYNEKFKGRATLTVDKSTSTAYMELSSLRSEDTAVYYCARYYGSDYEWYFDVWGQGTTVTVSS
VL: DIQMTQSPSSMSASVGDRVTITCKASQNVRTAVVWYQQKPGKAPKALIYLASNRHTGVPDRFSGSGSGTDFTLTISSLQPEDFATYFCLQHWNYPYTFGQGTKLEIK
notes: It was detected with anti-human IgG Fc; also called anti-CD73 antibody 900725

The first assay concerns the target T1, human CD73 expressed on CHOK1-huCD73-3F4 cells (human, UniProt P21589 27-549).
T1 construct: whole, on cells; also called cells expressing human CD73 (CHOK1-huCD73-3F4, Huabo Biopharm); CD73 antigen on the cell surface
T1 sequence (looked up): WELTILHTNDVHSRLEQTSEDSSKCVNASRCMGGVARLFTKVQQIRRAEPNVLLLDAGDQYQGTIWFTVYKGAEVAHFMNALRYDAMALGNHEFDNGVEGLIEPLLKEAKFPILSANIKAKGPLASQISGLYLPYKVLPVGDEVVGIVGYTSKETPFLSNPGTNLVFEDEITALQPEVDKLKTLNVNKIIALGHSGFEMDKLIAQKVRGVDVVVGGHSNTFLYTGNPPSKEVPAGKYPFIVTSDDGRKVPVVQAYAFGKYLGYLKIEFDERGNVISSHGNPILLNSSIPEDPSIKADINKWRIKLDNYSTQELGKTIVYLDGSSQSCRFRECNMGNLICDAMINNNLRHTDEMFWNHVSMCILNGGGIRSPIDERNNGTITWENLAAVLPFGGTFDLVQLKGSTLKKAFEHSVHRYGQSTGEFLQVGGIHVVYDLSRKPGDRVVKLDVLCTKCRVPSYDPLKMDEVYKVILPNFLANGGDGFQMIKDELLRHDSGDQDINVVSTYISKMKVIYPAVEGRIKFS
The assay can be described thus: flow cytometry (PE-MFI, PE-goat anti-human-Fc) on CHOK1-huCD73-3F4 cells expressing human CD73; four-parameter fit table under the curves, unit from the concentration axis. As for the experimental part:
The binding activity of the antibody-drug conjugate 1 and the antibody-drug conjugate 2 prepared in Example 1 and the 900698 naked antibody to cells expressing human CD73 (CHOK1-huCD73-3F4, Huabo Biopharm) was assayed.
All antigen-binding proteins were diluted to 30 μg/mL with a solution of 1% BSA in PBS (1% BSA/PBS), followed by a 3-fold dilution across 10 gradients. The diluted proteins were each added at 20 μL per well to a 96-well U-bottom plate, with a negative control (adding only 1% BSA/PBS) set up simultaneously. A suspension of cells expressing human CD73 (CHOK1-huCD73-3F4, Huabo Biopharm) in the logarithmic growth phase was taken and centrifuged (1000 rpm×5 min), and then the culture medium was discarded. The cells were resuspended in 1% BSA/PBS until the viable cell density was 1×10⁶ cells/mL, then added at 20 μL (2×10⁴ cells) per well to the 96-well U-bottom plate containing the anti-CD73 antigen-binding proteins, and incubated at room temperature for reaction for 30 min. The reacted cells in the 96-well U-bottom plate were resuspended in 1% BSA/PBS and centrifuged (300 g×3 min), and then the supernatant was discarded. This washing process was performed once. Then, a 1:200 dilution of PE-goat anti-human-Fc (Jackson ImmunoResearch, #109-115-098) was added, and the cells were incubated in the dark at room temperature for reaction for 15 min. The reacted cells in the 96-well U-bottom plate were further resuspended in 1% BSA/PBS and centrifuged (300 g×3 min), and then the supernatant was discarded. This washing process was performed 3 times. Finally, the cells were resuspended in 100 μL of 1% BSA/PBS per well, and the fluorescence intensity in the PE channel was detected using a flow cytometer (BD, #Canto II).
For orientation: In flow cytometry, cells or beads pass a laser one at a time.
As for B1, the EC50 (in general, the concentration at which the effect is half-maximal) was 1.01 µg/mL.

The molecule B2 registered an EC50 of 0.67 µg/mL.

For B3, a half-maximal response (EC50) required 0.659 µg/mL.

The next assay deals with T2, monkey CD73 protein (Novoprotein, Cat. No. CI21) (monkey).
T2 construct: Bought protein
The experiment in a line: SPR (Biacore T200), antibody captured on protein A chip, CD73 as analyte, 1:1 model. As for the experimental part:
(§1) The binding kinetics of the antibody-drug conjugate 1 and the antibody-drug conjugate 2 prepared in Example 1 and the 900698 naked antibody with a human CD73 protein (manufacturer: ACRO Biosystems, Cat. No. CD3-H52H7) and a monkey CD73 protein (manufacturer: Novoprotein, Cat. No. CI21) were assayed using Biacore (GE, model: T200), with an assay buffer of HBS-EP+ (pH 7.4) and a protein A chip (manufacturer: GE, Cat. No. 29-1275-56).
(§2) The temperature for the sample compartment and the flow path was set to 25° C. The protein A chip captured each antigen-binding protein as a ligand, fixing about 100 RU. The human CD73 protein was diluted with the assay buffer to a series of concentrations of 50 nM, 25 nM, 12.5 nM, 6.25 nM, 3.12 nM, and 1.57 nM, serving as analytes, and the assay buffer was used as a 0 concentration control. At a flow rate of 30 μL/min, association was conducted for 120 s, and dissociation was conducted for 600 s. Glycine (10 mM, pH 1.5) was used for regeneration at a flow rate of 50 μL/min for 60 s in a multi-cycle kinetic assay. A 1:1 binding model was used, and the Fit Local mode was selected to determine the association rate constant (ka), dissociation rate constant (kd), and equilibrium dissociation constant (KD).
Background: SPR reads the build-up and loss of mass on a sensor chip optically.
Take B1: the affinity, expressed as Kd, was 0.121 nM; the koff (in general, the first-order rate constant of dissociation) turned out to be 1.8e-05 s⁻¹; the on-rate (kon) (usually the second-order rate constant of association) came to 148000 M⁻¹ s⁻¹.

On to B2, for which binding was put at a Kd of 0.252 nM, the koff came out at 0.000114 s⁻¹ and the kon amounted to 454000 M⁻¹ s⁻¹.

For the molecule B3, binding was characterised by a dissociation constant (Kd) of 0.0349 nM, the koff came to 1.92e-06 s⁻¹ and the kon was 55000 M⁻¹ s⁻¹.

The target in the next assay is T3, human CD73 protein (ACRO Biosystems, Cat. No. CD3-H52H7) (human, UniProt P21589 27-547).
T3 construct: Bought protein; also called recombinant CD73 protein; soluble recombinant CD73 antigen protein
T3 sequence (looked up): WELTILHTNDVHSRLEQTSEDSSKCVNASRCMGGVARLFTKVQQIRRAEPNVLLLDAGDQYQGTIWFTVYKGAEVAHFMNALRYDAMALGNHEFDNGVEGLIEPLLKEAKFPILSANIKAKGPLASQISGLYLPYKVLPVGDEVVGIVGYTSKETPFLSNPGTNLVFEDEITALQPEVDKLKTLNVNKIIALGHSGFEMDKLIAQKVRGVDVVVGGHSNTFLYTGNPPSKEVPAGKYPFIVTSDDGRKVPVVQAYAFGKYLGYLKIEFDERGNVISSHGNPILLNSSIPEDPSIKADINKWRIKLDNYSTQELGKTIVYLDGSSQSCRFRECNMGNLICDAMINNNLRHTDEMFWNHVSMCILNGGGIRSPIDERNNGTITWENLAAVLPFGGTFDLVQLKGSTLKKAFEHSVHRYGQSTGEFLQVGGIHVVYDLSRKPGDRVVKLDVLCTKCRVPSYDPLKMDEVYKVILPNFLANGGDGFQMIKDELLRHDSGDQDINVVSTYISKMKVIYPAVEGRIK
The description is as above. As for the experimental part:
as §1, §2
Regarding B1, binding was characterised by a dissociation constant (Kd) of 0.711 nM, the koff was 0.000104 s⁻¹ and the kon turned out to be 147000 M⁻¹ s⁻¹.

On to B2, for which binding was put at a Kd of 0.354 nM, the koff was 0.000228 s⁻¹ and the kon worked out at 643000 M⁻¹ s⁻¹.

Consider B3, for which binding was put at a Kd of 0.339 nM, the koff turned out to be 0.000129 s⁻¹ and the kon was determined as 381000 M⁻¹ s⁻¹.

Another assay has as its target T4, CD73 on the surface of Calu6 cells (UniProt P21589 27-549).
T4 sequence (looked up): T1 sequence (looked up)
The assay can be described thus: cell-based or functional assay.
Regarding B4, the Endocytosis efficiency (%) turned out to be 44.2% and the “fluorescence intensity of surface antibody after 5 h at 37° C. (flow cytometry, Calu6 cells)” value amounted to 14400.

With B1, the Endocytosis efficiency (%) stood at 96.3% and the “fluorescence intensity of surface antibody after 5 h at 37° C. (flow cytometry, Calu6 cells)” value stood at 359.

B5: the Endocytosis efficiency (%) worked out at 37.5% and the “fluorescence intensity of surface antibody after 5 h at 37° C. (flow cytometry, Calu6 cells)” value stood at 8710.

The next assay concerns the target T3, human CD73 protein (ACRO Biosystems, …). The assay can be described thus: cell-based or functional assay.
With B1, the “IC50, inhibition of the enzymatic activity of recombinant CD73 (AMP/ATP, CellTiter-Glo signal)” value turned out to be 0.352 µg/mL.

Consider B2, for which the “IC50, inhibition of the enzymatic activity of recombinant CD73 (AMP/ATP, CellTiter-Glo signal)” value was 0.553 µg/mL.

Consider B3, for which the “IC50, inhibition of the enzymatic activity of recombinant CD73 (AMP/ATP, CellTiter-Glo signal)” value came to 0.587 µg/mL.

Another assay addresses T4, CD73 on the surface of Calu6 cells. The experiment in a line: cell-based or functional assay. This is another data set of the same source.
As to B1, the “Endocytosis efficiency (%)” value is 95.4%.

B2: the “Endocytosis efficiency (%)” value was 95.8%.

B3: the “Endocytosis efficiency (%)” value amounted to 95.6%.

The next assay has the same target. The assay can be described thus: flow cytometry on Calu6 cells, antibody at 1 ug/mL, kept at 4 C, PE anti-human IgG Fc detection. As for the experimental part:
The endocytosis efficiency of monoclonal antibodies 900698 and 900725 was compared through an endocytosis assay, with the procedures as follows: Anti-CD73 antigen-binding proteins such as the CD73 positive control antibody BMS-986179, 900698, and 900725 were diluted to 1 μg/mL with a PBS solution, with 2 replicate wells set up for each concentration. Calu6 cells in the logarithmic growth phase were taken and prepared into a cell suspension at 2× 10⁵ cells/mL. The cell suspension was then added at 100 μL (about 20000 cells) per well to a 96-well U-bottom plate and centrifuged at 300 g for 3 min, and then the supernatant was discarded. Then, the diluted antigen-binding proteins were each added at 100 μL/well to resuspend the cells, and the mixture was mixed uniformly and incubated at 4° C. for 30 min. After the incubation was completed, the mixture was centrifuged at 300 g for 3 min, and then the supernatant was discarded. The cells were then resuspended in 1% BSA, with half incubated at 37° C. and the other half at 4° C., for an incubation time of 5 h. After the incubation was completed, the wells corresponding to the specified time were removed. The cells in these wells were centrifuged at 300 g for 3 min, and then the supernatant was discarded. PE anti-hulgG Fc (1:200) was then added at 50 μL/well, and the mixture was mixed uniformly and allowed to react at 4° C. for 30 min. After the incubation was completed, the cells were washed twice and centrifuged at 300 g for 3 min, and the fluorescence intensity was detected by flow cytometry. The assay results for the endocytosis of CD73 on the cell surface induced by the anti-CD73 antigen-binding proteins are shown in Table 5 below and FIG. 9. […] 34%. In FIG. 9, the results for BMS-986179, 900725, and 900698 are represented as 1-3, respectively, and NC indicates the result for the condition that only a 1% BSA solution was added without any antibody or antibody-drug conjugate.
In the case of B4, the “fluorescence intensity at 4° C.” value is 25700.

B1: the “fluorescence intensity at 4° C.” value turned out to be 8940.

B5: the “fluorescence intensity at 4° C.” value worked out at 13900.
